Publication PMC9482650, “Quantitative fragmentomics allow affinity mapping of interactomes” (Nature Communications, 2022)

Key:
Assay in all cases: holdup assay
Parameters in all cases: key: below the threshold = too weak to quantify, mostly under pKd 3.1 to 4
[1] = target: T1, TIAM2, Q8IVF5
T1 sequence (Q8IVF5 885-986, limits assumed, looked up): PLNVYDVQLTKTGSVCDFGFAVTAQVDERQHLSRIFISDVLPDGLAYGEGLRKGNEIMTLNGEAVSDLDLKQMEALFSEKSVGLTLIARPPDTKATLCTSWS

[2] = target: DLG2_1, Q15700
[3] = target: DLG5_2, Q8TDM6
DLG5_2, Q8TDM6, sequence (Q8TDM6 714-800): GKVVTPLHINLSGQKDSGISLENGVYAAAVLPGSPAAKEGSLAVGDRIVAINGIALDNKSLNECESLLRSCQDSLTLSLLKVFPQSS

[4] = target: T2, GIPC1, O14908
T2 sequence (O14908 128-223, limits assumed, looked up): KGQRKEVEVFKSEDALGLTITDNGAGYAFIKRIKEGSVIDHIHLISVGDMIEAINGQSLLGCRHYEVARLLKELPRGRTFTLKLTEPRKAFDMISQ

[5] = target: MAGI1_5, Q96QZ7
MAGI1_5, Q96QZ7, sequence (Q96QZ7 986-1098): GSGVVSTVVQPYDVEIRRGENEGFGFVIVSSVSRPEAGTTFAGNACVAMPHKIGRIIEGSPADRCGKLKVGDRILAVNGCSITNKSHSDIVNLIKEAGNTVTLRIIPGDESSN

[6] = target: MAGI1_6, Q96QZ7
MAGI1_6, Q96QZ7, sequence (Q96QZ7 1146-1238): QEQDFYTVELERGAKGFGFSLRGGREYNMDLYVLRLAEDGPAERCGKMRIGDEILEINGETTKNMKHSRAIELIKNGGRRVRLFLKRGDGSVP

[7] = target: MAGI3_6, Q5TCQ9
MAGI3_6, Q5TCQ9, sequence (Q5TCQ9 1014-1103): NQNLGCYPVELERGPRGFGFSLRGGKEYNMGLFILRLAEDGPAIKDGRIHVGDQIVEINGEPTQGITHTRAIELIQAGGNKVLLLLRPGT

[8] = target: T3, MLLT4, P55196
T3 sequence (P55196 1002-1103, limits assumed, looked up): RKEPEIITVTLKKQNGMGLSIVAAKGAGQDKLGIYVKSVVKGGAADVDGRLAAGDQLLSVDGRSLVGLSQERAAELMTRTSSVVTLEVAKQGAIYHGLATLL

[9] = target: T4, MPDZ_6, O75970
T4 sequence (O75970 1003-1099, limits assumed, looked up): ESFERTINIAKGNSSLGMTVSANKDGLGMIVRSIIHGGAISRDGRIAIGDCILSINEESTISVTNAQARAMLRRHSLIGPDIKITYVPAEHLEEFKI

[10] = target: T5, MPDZ_7, O75970
T5 sequence (O75970 1146-1253, limits assumed, looked up): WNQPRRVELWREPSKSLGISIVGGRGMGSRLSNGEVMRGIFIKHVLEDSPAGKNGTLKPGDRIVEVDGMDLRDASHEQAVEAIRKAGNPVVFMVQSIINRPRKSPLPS

[11] = target: T6, MPP5, Q8N3R9
T6 sequence (Q8N3R9 251-346, limits assumed, looked up): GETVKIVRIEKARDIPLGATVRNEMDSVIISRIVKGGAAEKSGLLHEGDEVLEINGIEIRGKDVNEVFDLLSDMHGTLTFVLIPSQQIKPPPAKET

[12] = target: T7, NHERF1_2, O14745
T7 sequence (O14745 149-244, limits assumed, looked up): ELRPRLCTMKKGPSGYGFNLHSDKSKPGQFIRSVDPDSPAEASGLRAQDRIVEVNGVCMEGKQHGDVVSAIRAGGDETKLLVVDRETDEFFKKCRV

[13] = target: T8, PDLIM3, Q53GG5
T8 sequence (Q53GG5 1-94, limits assumed, looked up): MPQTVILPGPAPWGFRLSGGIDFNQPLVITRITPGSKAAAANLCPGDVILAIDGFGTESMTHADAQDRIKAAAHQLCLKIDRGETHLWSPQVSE

[14] = target: PDLIM4, P50479
[15] = target: T9, PDZD2_3, O15018
T9 sequence (O15018 581-682, limits assumed, looked up): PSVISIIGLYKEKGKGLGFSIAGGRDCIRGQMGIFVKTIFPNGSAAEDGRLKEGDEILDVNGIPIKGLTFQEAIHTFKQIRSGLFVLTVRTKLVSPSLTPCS

[16] = target: T10, PDZD2_4, O15018; conditions: plain residues with an end cap or a label only (N-terminal biotin on a linker: ttds)
T10 sequence (O15018 723-823, limits assumed, looked up): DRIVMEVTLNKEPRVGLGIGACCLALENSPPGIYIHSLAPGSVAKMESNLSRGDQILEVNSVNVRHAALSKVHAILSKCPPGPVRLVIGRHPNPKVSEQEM

[17] = target: T11, PREX2_2, Q70Z35
T11 sequence (Q70Z35 672-764, limits assumed, looked up): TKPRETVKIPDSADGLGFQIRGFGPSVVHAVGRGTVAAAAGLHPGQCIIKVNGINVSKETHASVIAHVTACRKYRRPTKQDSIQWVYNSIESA

[18] = target: PTPN13_2, Q12923
PTPN13_2, Q12923, sequence (Q12923 1363-1462): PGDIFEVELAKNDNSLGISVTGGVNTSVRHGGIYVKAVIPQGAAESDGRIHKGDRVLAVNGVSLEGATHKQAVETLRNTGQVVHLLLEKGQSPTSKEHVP

[19] = target: SDCBP_1, O00560
SDCBP_1, O00560, sequence (O00560 111-198): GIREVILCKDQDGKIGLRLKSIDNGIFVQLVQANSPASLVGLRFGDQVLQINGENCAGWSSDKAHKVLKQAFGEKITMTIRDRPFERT

[20] = target: T12, TJP3_1, O95049
T12 sequence (O95049 6-103, limits assumed, looked up): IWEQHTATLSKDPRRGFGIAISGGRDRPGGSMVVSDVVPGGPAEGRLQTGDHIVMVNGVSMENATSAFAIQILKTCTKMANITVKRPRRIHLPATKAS

[21] = target: CARD14, Q9BXL6
CARD14, Q9BXL6, sequence (Q9BXL6 558-663): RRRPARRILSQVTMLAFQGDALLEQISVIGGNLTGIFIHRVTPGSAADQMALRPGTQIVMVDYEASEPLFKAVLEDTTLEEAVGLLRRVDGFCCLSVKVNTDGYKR

[22] = target: GRIP2_2, Q9C0E4
GRIP2_2, Q9C0E4, sequence (Q9C0E4 137-245): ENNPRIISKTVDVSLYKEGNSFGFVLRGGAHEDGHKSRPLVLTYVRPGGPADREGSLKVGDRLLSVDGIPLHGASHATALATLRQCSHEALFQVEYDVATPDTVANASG

[23] = target: LMO7, Q8WWI1
LMO7, Q8WWI1, sequence (Q8WWI1 1037-1138): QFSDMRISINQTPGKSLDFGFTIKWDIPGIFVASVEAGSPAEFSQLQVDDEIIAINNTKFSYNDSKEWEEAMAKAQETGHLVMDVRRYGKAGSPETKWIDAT

[24] = target: LIMK1, P53667; conditions: plain residues with an end cap or a label only (N-terminal biotin on a linker: none)
LIMK1, P53667, sequence (P53667 155-268): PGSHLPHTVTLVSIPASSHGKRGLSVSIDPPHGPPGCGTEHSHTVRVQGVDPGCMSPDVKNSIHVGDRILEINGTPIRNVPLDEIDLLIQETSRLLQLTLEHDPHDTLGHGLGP

[25] = plain residues with an end cap or a label only (N-terminal biotin on a linker: ttds)
[26] = plain residues with an end cap or a label only (N-terminal biotin on a linker: ahx)
[27] = plain residues with an end cap or a label only (N-terminal biotin on a linker: gsgsgs; C-terminal amide)
[28] = plain residues with an end cap or a label only (N-terminal biotin on a linker: none)

B1: PPP1R13L, Q8WUF5 (peptide)
chain: PRVKPQRSKV
- pKd [1, 25]: below the threshold

B2: PLCB4, Q15147 (peptide)
chain: EMDRRPATVV
- pKd [1, 25]: below the threshold

B3: HPV35-E6, P27228 (peptide)
chain: SKPTRRETEV
- pKd [2, 25]: 4.91
- pKd [3, 25]: 4.72
- pKd [4, 25]: 4.69
- pKd [5, 25]: 4.43
- pKd [6, 25]: 3.66
- pKd [7, 25]: 3.81
- pKd [8, 25]: 3.79
- pKd [9, 25]: below the threshold
- pKd [10, 25]: below the threshold
- pKd [11, 25]: below the threshold
- pKd [12, 25]: below the threshold
- pKd [13, 25]: below the threshold
- pKd [14, 25]: 4.16
- pKd [15, 25]: below the threshold
- pKd [16]: below the threshold
- pKd [17, 25]: 3.62
- pKd [18, 25]: below the threshold
- pKd [19, 25]: below the threshold
- pKd [1, 25]: below the threshold
- pKd [20, 25]: below the threshold

B4: KCTD3, Q9Y597 (peptide)
chain: SDSSGQEYSL
- pKd [1, 26]: below the threshold

B5: SHROOM4, Q9ULL8 (peptide)
chain: ESLLLGPSNF
- pKd [1, 26]: 3.49

B6: ARHGEF7, Q14155;Q14155-1 (peptide)
chain: NDPAWDETNL
- pKd [1, 25]: below the threshold

B7: TMIGD1, Q6UXZ0 (peptide)
chain: DKDPHSETAL
- pKd [1, 25]: below the threshold

B8: SLC4A7, Q9Y6M7 (peptide)
chain: KKYVDAETSL
- pKd [1, 25]: below the threshold

B9: TJP3, O95049 (peptide)
chain: GYDWGPATDL
- pKd [1, 26]: below the threshold

B10: SLC16A3, O15427 (peptide)
chain: EVVHTPETSV
- pKd [1, 25]: below the threshold

B11: PDZRN4, Q6ZMN7 (peptide)
chain: HNAFLSVTTV
- pKd [1, 26]: below the threshold

B12: TRIM50, Q86XT4 (peptide)
chain: PLSPEQPTKL
- pKd ([1]; plain residues with an end cap or a label only (N-terminal biotin on a linker: ado-ado)): below the threshold

B13: NHERF2, Q15599 (peptide)
chain: NRKREIFSNF
- pKd [1, 26]: below the threshold

B14: HPV49-L2, P36762 (peptide)
chain: RRRKRKRTYL
- pKd [1, 26]: below the threshold

B15: PSCDBP, O60759 (peptide)
chain: RAVEEEESRF
- pKd [1, 26]: below the threshold

B16: DOCK4, Q8N1I0 (peptide)
chain: RPLPRKVSQL
- pKd [21, 25]: below the threshold
- pKd [2, 25]: below the threshold
- pKd [3, 25]: below the threshold
- pKd [4, 25]: below the threshold
- pKd [22, 25]: 4.25
- pKd [23, 25]: below the threshold
- pKd [5, 25]: below the threshold
- pKd [6, 25]: below the threshold
- pKd [7, 25]: below the threshold
- pKd [8, 25]: below the threshold
- pKd [9, 25]: below the threshold
- pKd [10, 25]: below the threshold
- pKd [11, 25]: below the threshold
- pKd [12, 25]: 4.45
- pKd [13, 25]: below the threshold
- pKd [14, 25]: below the threshold
- pKd [15, 25]: below the threshold
- pKd [16]: below the threshold
- pKd [17, 25]: below the threshold
- pKd [18, 25]: below the threshold
- pKd [19, 25]: below the threshold
- pKd [1, 25]: below the threshold
- pKd [20, 25]: below the threshold

B17: MLLT4_int, P55196 (peptide)
chain: YGIVQETTFDLGGDIH
- pKd [1, 27]: 3.98

B18: SLC2A1, P11166 (peptide)
chain: FHPLGADSQV
- pKd [1, 25]: below the threshold

B19: ACVR2A, P27037 (peptide)
chain: VDFPPKESSL
- pKd [1, 25]: below the threshold

B20: OTULIN, Q96BN8 (peptide)
chain: PVRVCEETSL
- pKd [1, 25]: below the threshold

B21: SARS-CoV2-E, P0DTC4 (peptide)
chain: NLNSSRVPDLLV
- pKd [21, 28]: below the threshold
- pKd [2, 28]: below the threshold
- pKd [3, 28]: below the threshold
- pKd [4, 28]: below the threshold
- pKd [22, 28]: below the threshold
- pKd [24]: below the threshold
- pKd [23, 28]: below the threshold
- pKd [5, 28]: below the threshold
- pKd [6, 28]: below the threshold
- pKd [7, 28]: below the threshold
- pKd [8, 28]: 4.1
- pKd [9, 28]: below the threshold
- pKd [10, 28]: below the threshold
- pKd [11, 28]: 4.01
- pKd [12, 28]: 4.76
- pKd [13, 28]: below the threshold
- pKd [14, 28]: below the threshold
- pKd [15, 28]: below the threshold
- pKd [17, 28]: below the threshold
- pKd [18, 28]: below the threshold
- pKd [19, 28]: below the threshold
- pKd [1, 28]: below the threshold
- pKd [20, 28]: below the threshold

B22: LNX2, Q8N448 (peptide)
chain: TVICWPGSLV
- pKd [1, 26]: below the threshold

B23: PDLIM4, P50479;P50479-2 (peptide)
chain: PSASCAVTAA
- pKd [1, 26]: below the threshold

B24: GRIN1, Q05586;Q05586-2 (peptide)
chain: LSDPSVSTVV
- pKd [1, 26]: below the threshold

B25: DFNB31_int, Q9P202 (peptide)
chain: VSVDDVRSTSQGLSSY
- pKd [1, 27]: 3.85
